Reference: PMC6327030, “Structure and inhibition mechanism of the catalytic domain of human squalene epoxidase” (Nature Communications, 2019)

Assays:
[1] = substrate: CC(C)=CCC/C(C)=C/CC/C(C)=C/CC/C=C(\C)CC/C=C(\C)CCC=C(C)C; assay: cells, lysate or membranes named; settings: other: SQLE baculosome; varied squalene, saturating FAD; pH 7.0
[2] = substrate: CC(C)=CCC/C(C)=C/CC/C(C)=C/CC/C=C(\C)CC/C=C(\C)CCC=C(C)C; assay: purified protein, by the assay type; settings: varied squalene, saturating FAD

B1: baculosome-derived full-length SQLE (Homo sapiens) (protein)
chain: MWTFLGIATFTYFYKKFGDFITLANREVLLCVLVFLSLGLVLSYRCRHRNGGLLGRQQSGSQFALFSDILSGLPFIGFFWAKSPPESENKEQLEARRRRKGTNISETSLIGTAACTSTSSQNDPEVIIVGAGVLGSALAAVLSRDGRKVTVIERDLKEPDRIVGEFLQPGGYHVLKDLGLGDTVEGLDAQVVNGYMIHDQESKSEVQIPYPLSENNQVQSGRAFHHGRFIMSLRKAAMAEPNAKFIEGVVLQLLEEDDVVMGVQYKDKETGDIKELHAPLTVVADGLFSKFRKSLVSNKVSVSSHFVGFLMKNAPQFKANHAELILANPSPVLIYQISSSETRVLVDIRGEMPRNLREYMVEKIYPQIPDHLKEPFLEATDNSHLRSMPASFLPPSSVKKRGVLLLGDAYNMRHPLTGGGMTVAFKDIKLWRKLLKGIPDLYDDAAIFEAKKSFYWARKTSHSFVVNILAQALYELFSATDDSLHQLRKACFLYFKLGGECVAGPVGLLSVLSPNPLVLIGHFFAVAIYAVYFCFKSEPWITKPRALLSSGAVLYKACSVIFPLIYSEMKYMVH
Q: B1 was tested. Which Km [1] did it give?
A: 3.3 ± 0.7 µM

Q: What about the kcat [1] of the same protein?
A: 0.0233 s⁻¹

Q: What about the kcat/Km [1] of the same protein?
A: 7080 M⁻¹ s⁻¹

B2: endogenous SQLE in human liver microsomes (Homo sapiens) (protein)
chain: B1 chain
Q: For B2, which Km ([2]; other: HLMs) is on record?
A: 2.9 ± 0.2 µM

B3: recombinant N-terminally truncated SQLE (118–574) (Homo sapiens) (protein)
chain: TSSQNDPEVIIVGAGVLGSALAAVLSRDGRKVTVIERDLKEPDRIVGEFLQPGGYHVLKDLGLGDTVEGLDAQVVNGYMIHDQESKSEVQIPYPLSENNQVQSGRAFHHGRFIMSLRKAAMAEPNAKFIEGVVLQLLEEDDVVMGVQYKDKETGDIKELHAPLTVVADGLFSKFRKSLVSNKVSVSSHFVGFLMKNAPQFKANHAELILANPSPVLIYQISSSETRVLVDIRGEMPRNLREYMVEKIYPQIPDHLKEPFLEATDNSHLRSMPASFLPPSSVKKRGVLLLGDAYNMRHPLTGGGMTVAFKDIKLWRKLLKGIPDLYDDAAIFEAKKSFYWARKTSHSFVVNILAQALYELFSATDDSLHQLRKACFLYFKLGGECVAGPVGLLSVLSPNPLVLIGHFFAVAIYAVYFCFKSEPWITKPRALLSSGAVLYKACSVIFPLIYSEMKYMVH
Q: What does the source list for B3?
A: Km ([2]; other: SQLE (118–574), pH 8.0): 1.9 ± 0.4 µM; kcat ([2]; other: SQLE (118–574), pH 8.0): 0.0348 s⁻¹; kcat/Km ([2]; other: SQLE (118–574), pH 8.0): 18300 M⁻¹ s⁻¹
